Experiment [1] deals with actin (ATP-G-actin from chicken skeletal muscle) (chicken) (UniProt P68139).
For experiment [2] the target is unchanged. Nature of the experiment: ITC.

In general, stoichiometry N refers to a count of units in the complex or per binding partner.

“F1^15-160, an N-terminally truncated version of F1 that lacks Asn13 (domain or fragment)”: the Pi released from actin in the presence of F1^15-160, compared to F1A in experiment [1] worked out at 25%. As to “fragmin domain-1 (F1) (residues 1 to 160) (domain or fragment)”, the stoichiometry N in experiment [2] worked out at 0.956.
